From US20210261643A1, “INHIBITORS OF P-TEFB MEDIATED TRANSCRIPTION” (The Regents of the University of California, priority 2018, published 2021)

How the values were obtained:
[1] = target: T1, P-TEFb (CycT1) (Homo sapiens, UniProt O60563); test: Co-immunoprecipitation of CycT1 from 293T cell lysates; assay type: binding
T1 construct: endogenous in cells; host or cells: 293T
From the text: We next investigated the mechanisms by which HT1 can prevent HIV gene expression.

[2] = system: early steps of HIV infection (HIV-1 NL43ΔenvLuc); test: Single-round infection with Env-pseudotyped replication-defective HIV, proviral DNA by qPCR; assay type: cell-based; settings: C-HT, MO-HT, MT-HT cells
From the text: FIGS. 5A, 5B, 5C, and 5D. Stable expression of HT1 inhibits HIV replication. FIG. 5A. Stable expression of HT1 inhibits HIV-1 replication in C-HT cells. 1E+06 HT1-expressing CEM-HT cells and e control CEM cells were challenged by HIV-1 NL43 infection. FIG. 5B. Stable expression of HT1 inhibits HIV-1 replication in MO-HT cells. 1E+06 HT1-expressing MOLT4-HT cells, and control MOLT4 cells were challenged by HIV-1 NL43 infection. FIG. 5C. Stable expression of HT1 inhibits HIV-1 replication in MT-HT cells. 1E+06 HT1-expressing MT4-HT cells, and control MT4 cells were challenged by HIV-1 NL43 infection. In each of FIGS. 5A, 5B, and 5C, virus production was assessed by Gag p24 ELISA in supernatants when cells were passaged at days 0, 2 and 4, and plotted. Error bars represent standard deviation from triplicate experiments. FIG. 5D: Stable expression of HT1 doesn't inhibit early steps of HIV-1 infection in C-HT, MO-HT, and MT-HT cells. Single-round infection assays were performed in the same conditions as in FIG. 5A-C above, but using replication-defective HXB2 Env-pseudotyped HIV-1 NL43ΔenvLuc. The relative amount of HIV DNA integrated in the cells' genomic DNA was assessed after 24 h by qPCR. […]
On 2 dpi, virus production was detected from CEM, MOLT4 and MT4 cells and reached around 20 (CEM, MT4) to 110 (MOLT4) ng/mL p24 concentration in the supernatant on 4 dpi.

[3] = system: CEM, MOLT4, and MT4 T cell lines; test: Cell growth of T cell lines stably expressing HT1 (total viable cell count); assay type: cell-based; settings: C-HT, MO-HT, MT-HT vs CEM, total viable cell count over time
Description: Finally, the impact of HT1 on cell growth was assessed using three T cell lines (CEM, MOLT4, and MT4) infected by a lentivirus expressing a triple Flag-epitope tagged HT1 (3f:HT1). Polyclonal population of HT1-expressing cells (C-HT, MO-HT, and MT-HT, respectively) was selected by puromycin and confirmed by BFP expression detected by FACS analysis and WB. […] This confirmed that HT1 was specific to HIV inhibition, and that the few off-target effects had little impact on the metabolism of the cells.

[4] = system: 7SK snRNA; test: Binding to endogenous 7SK snRNA
From the text: Finally, since HEXIM1 ARM resembles the TAR-binding domain from Tat, we investigated whether HT1 could bind to HIV TAR. m:HT1 or m:Tat was co-expressed in 293T cells with TAR RNA, expressed under RNA Polymerase III dependent H1 promoter, and immunoprecipitated using anti-Myc Ab or IgG as a control. TAR RNAs co-immunoprecipitated with HT1 or Tat were quantified by RT-qPCR analysis. […] To test whether HT1 affects Tat-TAR interactions, increasing amounts of m:HT1 were also co-expressed with a fixed amount of f:Tat and TAR. […] As expected, HT1 also bound to endogenous 7SK snRNA.

[5] = system: host cell gene expression in 293T cells; test: mRNA-seq analysis in 293T cells; assay type: cell-based
From the text: The specificity of HT1 was further investigated by mRNA-seq analysis in 293T cells. Only 48 genes were differentially expressed upon ectopic expression of HT1, while knocking out CycT1 as a control impacted 1673 genes.

T1 sequence (O60563 whole entry): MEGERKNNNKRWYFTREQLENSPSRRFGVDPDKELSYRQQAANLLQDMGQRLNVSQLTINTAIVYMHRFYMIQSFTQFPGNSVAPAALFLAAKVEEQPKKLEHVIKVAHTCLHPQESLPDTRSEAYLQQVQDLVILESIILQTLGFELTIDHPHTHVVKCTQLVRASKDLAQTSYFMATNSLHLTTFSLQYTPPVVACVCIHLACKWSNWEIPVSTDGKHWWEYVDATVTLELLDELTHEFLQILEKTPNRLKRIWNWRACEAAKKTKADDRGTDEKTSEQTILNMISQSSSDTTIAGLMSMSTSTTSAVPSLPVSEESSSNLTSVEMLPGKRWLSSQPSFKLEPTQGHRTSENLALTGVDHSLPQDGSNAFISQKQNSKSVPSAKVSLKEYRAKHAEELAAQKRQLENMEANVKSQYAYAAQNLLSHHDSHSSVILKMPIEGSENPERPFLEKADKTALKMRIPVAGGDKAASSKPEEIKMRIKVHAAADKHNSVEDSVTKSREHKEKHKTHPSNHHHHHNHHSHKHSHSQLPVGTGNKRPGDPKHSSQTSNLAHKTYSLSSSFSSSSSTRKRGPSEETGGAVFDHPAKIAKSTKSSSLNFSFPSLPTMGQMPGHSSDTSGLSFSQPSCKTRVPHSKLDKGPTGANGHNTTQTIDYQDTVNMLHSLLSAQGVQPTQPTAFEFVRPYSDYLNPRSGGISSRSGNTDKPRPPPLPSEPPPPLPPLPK
T1 sequence (P50750 whole entry partner): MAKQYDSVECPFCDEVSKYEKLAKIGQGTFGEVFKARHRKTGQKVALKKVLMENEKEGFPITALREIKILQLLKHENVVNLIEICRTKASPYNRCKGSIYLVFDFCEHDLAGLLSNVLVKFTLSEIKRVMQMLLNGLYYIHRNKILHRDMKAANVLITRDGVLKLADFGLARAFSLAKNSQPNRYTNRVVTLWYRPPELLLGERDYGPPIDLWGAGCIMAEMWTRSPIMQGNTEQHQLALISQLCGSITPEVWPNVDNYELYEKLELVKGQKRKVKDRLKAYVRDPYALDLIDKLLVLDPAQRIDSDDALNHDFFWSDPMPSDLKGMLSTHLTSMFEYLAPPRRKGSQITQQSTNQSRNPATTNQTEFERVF

B1: HT1 (protein)
chain: KKKHRRRPSKKKRHWKPYYKLTWEEKKKFDEKQSLRASRIRAEMFAKGQPVAPYNTTQFLMDDHDQEEPDLVDMEPVDPYLEPWKHPGSQPRTACNNCYCKKCCFHCYACFTRKGLGISYG
modifications: left off: small tags and cut ends
With B1 the “amounts of CycT1 co-immunoprecipitating with f:Tat” value ([1]; fixed amount of f:Tat, increasing amounts of m:HT1) was “decreased”, the “binding to CycT1 by co-immunoprecipitation” value ([1]; transient expression in 293T cells, anti-Myc or anti-Flag Abs) was “bound to CycT1” and the “early steps of HIV infection (proviral DNA by qPCR)” value [2] was “not affected”. For the same molecule, the “cellular growth rate versus control cells” value [3] was “no difference”, the “binding to endogenous 7SK snRNA” value [4] was “bound” and the “genes differentially expressed upon ectopic expression” value [5] was 48 genes. The “7SK RNA fold-change” value ([5]; padj=9.6E−06) was 1.1.
